Measured values from the nanobody polyreactivity screen of Harvey et al. (2022).

Assay: yeast display, Sf9 membrane polyspecificity reagent, FACS + sequencing; frameworks hold sequencing errors
Summary of the method: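 Galactose-induced (36–48 hours) yeast carrying a synthetic nanobody display library were exposed to 10% biotinylated, detergent-solubilized Sf9 membrane reagent at 4 °C for 1 hour. FACS followed streptavidin microbead enrichment, using low and high (top ~1%) gates for expression (anti-HA) and reagent binding (streptavidin). Colony PCR, MiSeq 2 × 250 sequencing and CDR-length filtering followed. Labels for polyreactivity reflect the gate of origin.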

Sequence	polyreactivity (PSR sort gate)
QVQLVESGGGLVQAGGSLRLSCAASGLTFQYYTMGWYRQAPGKERELVAAINWSGGSTYYADSVKGRFTISRDNAKNTVYLQMNSLKPVDTAVYYCNAVRFVEHDYWGQGTQVTVSS	high polyreactivity
QVQLVESGGGLVQAGGSLRLSCAASGITFYYYVMGWYRQAPGKERELVAAIDSGDSTYYADSVKGRFTISRDNAKNTVYLQMNSLKPEDTAVYYCAVDYEADNELNGPDQEYGRDSWGQGTQVTVSS	low polyreactivity
QDQLVESRGGLVQAGVSLRLSCAASGIIFAENAMGWYRQAPGKERELVAAITWNGGRTYYADSVKGRFTISRDNAKNTVYLQMNSLKPEDTAVYYCNAVTVYYRIYEYWGQGTQVNVSS	high polyreactivity
QVQLVESGGGVVQAGGSLRLSCAASGRIFLTNALGWYRQAPGKVREVVADISRGGSTYADSVKGRFTISRDTAKNTVYLQMTSLKPEDTAVDYCAADEYSPGDSRTRYAYWGQGTQVPVSS	low polyreactivity
QVQLVESGGGLVQAGGSLRISCAASGRNFPNYAMGWYRQAPGKERELVAAITSSGGSTYYADSVKGRFTISRDNAKNTVYLQMNSLKPEDTAVYYCNAGSWIRNDYWGQGTQVTVSS	high polyreactivity
QVQRVESGGGLVQAGGSLRLSCAASGRTSYYNTMGWYRQAPGKEMELVAAITGRGDSTYYADSVKGRFTISRDNAKNTVYLQMNSLKPEDTAVYYCADDELHLLYRVSKFVDYNHWGQGTQVTVSS	low polyreactivity
QVQLVESGGGLVQAGGSLRLSCAASGSIFRTNAMGWYRQAPGKERELVAAISSGDRTYYADSVKGRFTISRDNAKNTVYLQMNSLKPEDTAVYYCAARGYSATVYAGTYDYWGQGTQVTVSS	low polyreactivity
QVQLVESGGGIVQAGGSLRLSCAASGRTLDKYTMGWYRQAPGKERELVASITSGGSTNYADSVKGRFTISRDNAKNTVYLQMNSLKPEDTAVYYCNKRRRVSKLGQGYDYWGQGTQVTVSS	low polyreactivity
QVQLVESGGGLLQAGGSLRLSCAASGRTIDVYAMGWYTQAPGKERELVAAISWSGGGTYYADSVKGRFTISRDNAKNTVYFQMHSLKAEDTAVYYCAAALTFALDPNRYTYSDYYYWGQGTQVTVSS	low polyreactivity
QVHLVESGGGLVQAGGSLRLSCAASGSTFDDYVMGWYRQAPGKESELVAAITRSGTSTYYADSVKGRFTISRDNAKNTVYLQMNSLKPEETAVYYCAAGPFGLKPYTLGYNYWGQGTQVTVSS	high polyreactivity
QVQLVESGGGLVQAGGSLRLSCAPSGRIFRYYAMGWYRPAPGKERELVAAISSRGASTYYADSVKGRYTISRDNAKNTVYLQMNRVKPEDTAVYYCGVRTYVYHWSFSSLPYVYWGQGTQVTVSS	high polyreactivity
QVQLVESGGGLVQAGGSLRLSCAASGSIFVHNAMGWYRHAPGKERELVAAITWSGGSTYYADSVKGRFTISRDNAKNTVYLQMNSLKPEDTAVYYCAAEDVAAQWAYESPTSYWYYYWGQGTQVTVSS	low polyreactivity
QVQLVESGGGLVQAAGRLRLSCAASGRIFQWNAMGWSRQAPGKERQLVATISSRGGSTYYADSVKGRFTISRDNEKITVYLQMNSLIPEDTAVYYCAARYYAKYRSYDYWGQGSQVTVSS	high polyreactivity
EVQLVESGGGLVQAGGSLRLSCAASGSIYGSYAKGWYRQAPGKERELVAGITYRGSSTYYADSVKGRFTISRDNAKYTVYLLMNSLKPEDTAVYYCAADPVFDEYDYWGQGTQVTVSS	low polyreactivity
QVQLVESGGGLVQAGGSLRLSCAASGSTFFRYAMGWYRQAPGKERELVAAITTSGGNTYYADSVKGRFTISRDNAKNTVYLQMNSLKPEDTAVYYCNVLRGFPRYYYWGQGTQVTVSS	high polyreactivity
QVHLVETGGGLVQAGGSPRLSCAASGRTLLDYGLGWYRQAPGKERELVAGITSSGGRSYADSVKGRLTISRDNAKNTVYLEMNSLKPEDSAGYYCAAYLNLSELLRYHYWGKGTQVTVSS	low polyreactivity

Sequence	polyreactivity (PSR sort gate)
QVQLVESGGGLVQAGGSLRLSCAASGSIFGYYAMGWYRQAPGKERELVAAISSGGNTNYADSVKGRFTISRDNAKNTVYLQMNSLKPEDTAVYYCATRARYKRIRYDYWGQGTQVTVSS	high polyreactivity
QVQLVESGGGLVQAGGSLRLSCAASGFIFLLYDMGWYRQAPGKERELVAAISRSGGSTYYADSVKGRFTISRDNAKNTVYLQMNSLKPEDTAVYYCNAAYRPWRGGYYPVGYYYWGQGTQVTVSS	high polyreactivity
QVQLVESGGGLVQAGGSLRLSCAASGRTIRSYAMGWYRQAPGKERELVAAITGSGGRTYYADSVKGRFTISRDNAKNTVYLQMNSLKPEDTAVYYCAARLRGSYDYWGQGTQVTVSS	high polyreactivity
QVQLVESGGGLVQAGGSLRLSCAASRLTFRYYAMGWYRQAPGKERELVASISSSSGSTYYADSVKGRFTISRDNAKNTVYFQMNSLKPEDTAVYYCNARGWTLGADFGYWGQGTQVTVSS	low polyreactivity
QVQLVESGGVLVQAGGSLRLSCAASGRIFRNYVMGWYRQAPGKEREMVAAISRSGGSTYYADSVKGRFTISRDNAKNTVYLQMNSLKPEDTAVYYCNAEYASRRVSERDYWGQGTQVTVSS	high polyreactivity
QVQIVESGGGLVQAGGSLRLSCAASGSIFWFYAMGWSRQAPGKERELVAAITWNGGRTYYADSVKGRFTISRDNAKNTVYLQMNCLKPEDTAVYYCNKVSGYDVDYWGHGTQVTVSS	high polyreactivity
QVQLVESGGGLVQAGGSLRLSCAASGIMFFYYAMGWYRQAPGKERELVAAISNSDTSTSYADSVKGRFTISRDNAKNSVYFQMNSLKPEDTAVYYCNADSPSLSGDYWGQGTQVTVSS	low polyreactivity
QVQHVESGGGLVQAGGSLRLSCAASGSTFYINAKGWYRQAPGKEREFVASISWRGGSTYADSVKGRFTISRDNAKNTVYLQMNSLKPEDTAVYFCAAEFDVYSHHWITSYDYWGQGTQVTVSS	high polyreactivity
QVQLVESVGGLVQAGGSLRLSCAASGITFRRYAMGWYRQAPGKERELVATIRNSGGGTYYADSVKGRFTISRDNAKNTVYLQMNSLKPEDTAVYYCAAELYFTYYYWGQGTQVTVSS	high polyreactivity
QVQLVESVGGLVQAGGSLRLSCAASGFIFPYYVMGWYRQAPGKERELVAAITSVGITYYADSVKGRFTISRDNAKNTVYLQMNSLKPEDTAVYYCAADYKYFYDWGSFVEDEYWGQGTQVTVSS	high polyreactivity
QVQLVESGGGLVQAGGSLRLSCAASGSTFAYYAMGWYRQAPGKERELVAGISGSGGSTYYADSVKGRFTISRDNAKNTVYLQMNSLKPEVTAVYYCAVVQRSKRTYPWYDYWGQGTQVTVSS	low polyreactivity
QVQLVESGGGLVQAGGSLRLSCAASGRTFPYNAMGWYRTAPGKERELVAAISSGGSTNYADSVKGRFTISRDNAKNTVYLQMNSLKPEDTAVYYCAVTGWPRYTWYSYGYWGQGTQVTVSS	low polyreactivity
QVQLVESGGGLVQAGGSLRLSCAASGSTLRAYAMGWYRQAPGKDRELVAAISGRGGRTYYADSVKGRFTISRDNAKNTVYLQMNSLKPEDTAVYYCATRYREPYVWPYDYWGRGTQVTVSS	high polyreactivity
QFQLDESGGGLVQAGGSLRLSCAASGLTFSIYAMGWYRKARGKERELVAAITGRGGRTYYADSVKGRFTISRENAKNTVYLQMKSLKPEDTAFYYCADRYRGTDFDYWGQGTQVTVSS	high polyreactivity
QVQLVESGGGLVQEGGSLRLSCAASGLIFSYYAMGWYRQAPGKERELVAAISWSGASTFYADSVKGRFTISRDNAKNTVYLQMNSLKPEDTAVYYCAADTYGKTYYYWGQGTLVTVSS	low polyreactivity
QVQLVESGGGLVQAGGSLRISCAPSGSIFESNAMGWYRQAPGKERELVADITYRGTRTYYADSVKGRFTISRDNAKNTVYLQMNSLKPEDTAVYYCAVWQDHYDWGQGTQVTVSS	low polyreactivity
